Ends that are not written are not given here.
T1: CRF2R
T1 sequence (Q13324 whole entry, species assumed, looked up): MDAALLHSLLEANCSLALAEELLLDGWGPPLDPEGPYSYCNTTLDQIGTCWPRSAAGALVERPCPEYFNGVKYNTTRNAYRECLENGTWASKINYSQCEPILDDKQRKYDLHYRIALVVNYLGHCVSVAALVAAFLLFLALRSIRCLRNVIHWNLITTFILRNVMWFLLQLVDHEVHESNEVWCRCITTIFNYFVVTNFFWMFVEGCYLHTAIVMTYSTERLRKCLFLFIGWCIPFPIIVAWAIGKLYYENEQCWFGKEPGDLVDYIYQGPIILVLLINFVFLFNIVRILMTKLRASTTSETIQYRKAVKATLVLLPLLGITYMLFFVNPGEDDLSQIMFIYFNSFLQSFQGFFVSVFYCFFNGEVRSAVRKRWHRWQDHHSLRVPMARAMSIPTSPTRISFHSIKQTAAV

B1: SEQ ID NO 284 (peptide)
peptide: ZGPPISIDLPTWLLRKVIEIEKQEKEKQQAANNRLLLDTI
modifications: C-terminal amide
B2: SEQ ID NO 304 (peptide)
peptide: ZGPPISIDLPHALLRKMIEIEKQEKEKQQAANNRLLLDTI
modifications: C-terminal amide
B3: SEQ ID NO 306 (peptide)
peptide: ZGPPISIDLPIALLRKMIEIEKQEKEKQQAANNRLLLDTI
modifications: C-terminal amide
B4: SEQ ID NO 293 (peptide)
peptide: ZGPPISIDLPQILLRKVIEIEKQEKEKQQAANNRLLLDTI
modifications: C-terminal amide
B5: SEQ ID NO 302 (peptide)
peptide: ZGPPISIDLPQALLRKMIEIEKQEKEKQQAANNRLLLDTI
modifications: C-terminal amide
B6: SEQ ID NO 297 (peptide)
peptide: ZGPPISIDLPIILLRKVIEIEKQEKEKQQAANNRLLLDTI
modifications: C-terminal amide
B7: SEQ ID NO 301 (peptide)
peptide: ZGPPISIDLPTALLRKMIEIEKQEKEKQQAANNRLLLDTI
modifications: C-terminal amide
B8: SEQ ID NO 303 (peptide)
peptide: ZGPPISIDLPAALLRKMIEIEKQEKEKQQAANNRLLLDTI
modifications: C-terminal amide
B9: SEQ ID NO 305 (peptide)
peptide: ZGPPISIDLPVALLRKMIEIEKQEKEKQQAANNRLLLDTI
modifications: C-terminal amide
B10: SEQ ID NO 300 (peptide)
peptide: IVLSLDVPIGLLQKVIEIEKQEKEKQQATTNARILARV-NH2
B11: SEQ ID NO 271 (peptide)
peptide: NDDPPISIDLPLYLLRNMIEMARIENEREQAGLNAKYLAEV-NH2
B12: SEQ ID NO 287 (peptide)
peptide: ZGPPISIDLPYQLLRKMIEIEKQEKEKQQAANNARLLAR
modifications: C-terminal amide
B13: SEQ ID NO 288 (peptide)
peptide: ZGPPISIDLPYQLLRKMIEIEKQEKEKQQAANNARLLAR
modifications: C-terminal amide
B14: SEQ ID NO 270 (peptide)
peptide: NDDPPISIDLPLQLLRNMIEMARIENEREQAGLNAKYLAEV-NH2
B15: SEQ ID NO 296 (peptide)
peptide: HHHHHHIVLSLDVPIGLLQILLEQARARAAREQATTNARILARN-NH2
B16: SEQ ID NO 272 (peptide)
peptide: ZGPPISIDLPFQLLRKVIEIEKQEKEKQQAANNAELLAEI
modifications: not fully specified; C-terminal amide
B17: SEQ ID NO 285 (peptide)
peptide: ZGPPISIDLPQILLRKMIEIEKQEKEKQQAANNARLLARI
modifications: C-terminal amide
B18: SEQ ID NO 291 (peptide)
peptide: ZGPPISIDLPTWLLRKVIEIEKQEKEKQQAANNARLLARI
modifications: C-terminal amide
B19: SEQ ID NO 280 (peptide)
peptide: ZGPPISIDLPIFLLRKVIEIEKQEKEKQQAANNALLLATI
modifications: not fully specified; C-terminal amide
B20: SEQ ID NO 274 (peptide)
peptide: ZGPPISIDLPFQLLRKVIEIEKQEKEKQQAANNAKLLAKI
modifications: not fully specified; C-terminal amide
B21: SEQ ID NO 276 (peptide)
peptide: ZGPPISIDLPFQLLRKVIEIEKQEKEKQQAANNAQLLAQI
modifications: not fully specified; C-terminal amide
B22: SEQ ID NO 292 (peptide)
peptide: ZGPPISIDLPTWLLRKMIEIEKQEKEKQQAANNARLLARI
modifications: C-terminal amide
B23: SEQ ID NO 279 (peptide)
peptide: ZGPPISIDLPFQLLRKVIEIEKQEKEKQQAANNARLLARI
modifications: not fully specified; C-terminal amide
B24: SEQ ID NO 299 (peptide)
peptide: ZGPPISIDLPQILLRKVIEIEKQEKEKQQAANNALLLATI
modifications: C-terminal amide
B25: SEQ ID NO 282 (peptide)
peptide: ZGPPISIDLPIFLLRKMIEIEKQEKEKQQAANNARLLARI
modifications: not fully specified; C-terminal amide
B26: SEQ ID NO 273 (peptide)
peptide: ZGPPISIDLPFQLLRKVIEIEKQEKEKQQAANNAQLLAHI
modifications: not fully specified; C-terminal amide
B27: SEQ ID NO 275 (peptide)
peptide: ZGPPISIDLPFQLLRKVIEIEKQEKEKQQAANNANLLANI
modifications: not fully specified; C-terminal amide
B28: SEQ ID NO 298 (peptide)
peptide: ZGPPISIDLPIFLLRKMIEIEKQEKEKQQAANNALLLATI
modifications: C-terminal amide
B29: SEQ ID NO 295 (peptide)
peptide: ZGPPISIDLPIILLRKVIEIEKQEKEKQQAANNARLLARI
modifications: C-terminal amide
B30: SEQ ID NO 281 (peptide)
peptide: ZGPPISIDLPIFLLRKVIEIEKQEKEKQQAANNARLLARI
modifications: C-terminal amide
B31: SEQ ID NO 278 (peptide)
peptide: ZGPPISIDLPFQLLRKVIEIEKQEKEKQQAANNARLLDTI
modifications: C-terminal amide
B32: SEQ ID NO 283 (peptide)
peptide: ZGPPISIDLPYQLLRKVIEIEKQEKEKQQAANNRLLLDTI
modifications: C-terminal amide
B33: SEQ ID NO 290 (peptide)
peptide: ZGPPISIDLPIILLRKMIEIEKQEKEKQQAANNARLLARI
modifications: C-terminal amide
B34: SEQ ID NO 289 (peptide)
peptide: ZGPPISIDLPYWLLRKMIEIEKQEKEKQQAANNARLLARI
modifications: C-terminal amide
B35: SEQ ID NO 294 (peptide)
peptide: ZGPPISIDLPQILLRKVIEIEKQEKEKQQAANNARLLARI
modifications: C-terminal amide
B36: SEQ ID NO 286 (peptide)
peptide: ZGPPISIDLPYQLLRKVIEIEKQEKEKQQAANNARLLARI
modifications: C-terminal amide
B37: SEQ ID NO 277 (peptide)
peptide: ZGPPISIDLPFQLLRKVIEIEKQEKEKQQAANNAHLLAHI
modifications: C-terminal amide

These binders were tested against T1, CRF2R (assay: cell-based or functional assay).
Wherever CRF1R Emax % is given: reference of the scale not given here.
Wherever CRF2R Emax % is given: reference of the scale not given here.

| Binder | CRF2R EC50 [nM] | CRF2R Emax % [%] |
| --- | --- | --- |
| B1 | 100 | 100 |
| B2 | 19.3 | 92.5 |
| B3 | 27.6 | 100 |
| B4 | 40.3 | 87 |
| B5 | 36.2 | 100 |
| B6 | 100 | 88.3 |
| B7 | 50.5 | 88.4 |
| B8 | 27.2 | 100 |
| B9 | 35.5 | 95.2 |
| B10 | 17.1 | 100 |
| B11 | 48.1 | 69 |
| B12 | 11.3 | 100 |
| B13 | 14.7 | 100 |
| B14 | 100 | 19.3 |
| B15 | 6.66 | 65 |
| B16 | 23.3 | 100 |
| B17 | 13.9 | 97.1 |
| B18 | 100 | 63.8 |
| B19 | 100 | 82.3 |

| Binder | CRF2R EC50 [nM] | CRF2R Emax % [%] |
| --- | --- | --- |
| B20 | 13.8 | 100 |
| B21 | 22.1 | 100 |
| B22 | 100 | 86.1 |
| B23 | 13.1 | 100 |
| B24 | 46.4 | 71.5 |
| B25 | 25.8 | 60.8 |
| B26 | 31.3 | 100 |
| B27 | 46.6 | 100 |
| B28 | 82 | 98.8 |
| B29 | 55 | 67.6 |
| B30 | 100 | 78.8 |
| B31 | 19.6 | 100 |
| B32 | 10.6 | 72 |
| B33 | 100 | 100 |
| B34 | 12.2 | 97.3 |
| B35 | 100 | 100 |
| B36 | 13.5 | 92.5 |
| B37 | 28.2 | 100 |

What follows are binders tested against CRF1R (assay: cell-based or functional assay).

| Binder | CRF1R EC50 [nM] | CRF1R Emax % [%] |
| --- | --- | --- |
| B1 | 1000 | 27.7 |
| B2 | 116 | 100 |
| B3 | 608 | 97.7 |
| B4 | 520 | 95.3 |
| B5 | 366 | 100 |
| B6 | 1000 | 27.2 |
| B7 | 690 | 84.1 |
| B8 | 582 | 100 |
| B9 | 1000 | 59.5 |
| B10 | 1000 | 7.95 |
| B11 | 815 | 80.7 |
| B12 | 1000 | – |
| B13 | 838 | – |
| B14 | 1000 | 7.85 |
| B15 | 100 | 4 |
| B16 | 1000 | 51.1 |
| B17 | 1000 | 11.1 |
| B18 | 1000 | 4.75 |
| B19 | 1000 | 11.8 |

| Binder | CRF1R EC50 [nM] | CRF1R Emax % [%] |
| --- | --- | --- |
| B20 | 508 | 80.9 |
| B21 | 1000 | 75.7 |
| B22 | 1000 | 7 |
| B23 | 1000 | 93 |
| B24 | 1000 | 10.2 |
| B25 | 1000 | 21.8 |
| B26 | 1000 | 59.3 |
| B27 | 1000 | 38.3 |
| B28 | 1000 | 20.1 |
| B29 | 1000 | 5.3 |
| B30 | 1000 | 12.2 |
| B31 | 1000 | 48.7 |
| B32 | 635 | 100 |
| B33 | 1000 | 6.4 |
| B34 | 1000 | 69.5 |
| B35 | 1000 | 13.6 |
| B36 | 1000 | 19.2 |
| B37 | 1000 | 39.9 |
